In general, stoichiometry N refers to the number of molecules, sites or subunits per partner or assembly.

The target in data set [1] is head fiber gp14 of phage P68 (Staphylococcus aureus phage P68). Kind of data set: cryo-EM structure.
The target in data set [2] is portal protein gp19 of phage P68 (Staphylococcus aureus phage P68). Description: cryo-EM structure.
For data set [3], the target named is lower collar protein gp18 of phage P68 (Staphylococcus aureus phage P68). Kind of data set: cryo-EM structure.
Data set [4] has as its target major capsid protein gp20 of phage P68 (Staphylococcus aureus phage P68). Kind of data set: cryo-EM structure.
Data set [5] deals with tail fiber gp17 of phage P68 (in the virion) (Staphylococcus aureus phage P68). Description: cryo-EM structure.
The data set “crystal structure” concerns the molecule itself. Kind of data set: crystal structure.

Several values for one entry are separate records, joined by “and”; a condition that tells them apart may be missing. Equal entries are not always repeated.

Take “head fiber gp14 of phage P68 (natural protein)”: the stoichiometry N in data set [1] worked out at 3.

In turn, “portal protein gp19 of phage P68 (natural protein)” had a stoichiometry N in data set [2] of 12.

In turn, “lower collar protein gp18 of phage P68 (natural protein)” came in with a stoichiometry N in data set [3] of 12.

Consider “major capsid protein gp20 of phage P68 (natural protein)”, for which, in data set [4], the stoichiometry N was 5 and 6.

Molecule “inner core protein gp22 of phage P68 (natural protein)” gave a stoichiometry N in data set [2] of 6.

For the molecule “tail fiber gp17 of phage P68 (in the virion) (natural protein)”, in data set [5], the stoichiometry N is 3.

B1: His-tagged tail fiber protein of phage P68 (recombinant) (natural protein)
chain: MAYNENDFKYFDDIRPFLDEIYKTRERYTPFYDDRADYNTNSKSYYDYISRLSKLIEVLARRIWDYDNELKKRFKNWDDLMKAFPEQAKDLFRGWLNDGTIDSIIHDEFKKYSAGLTSAFALFKVTEMKQMNDFKSEVKDLIKDIDRFVNGFELNELEPKFVMGFGGIRNAVNQSINIDKETNHMYSTQSDSQKPEGFWINKLTPSGDLISSMRIVQGGHGTTIGLERQSNGEMKIWLHHDGVAKLLQVAYKDNYVLDLEEAKGLTDYTPQSLLNKHTFTPLIDEANDKLILRFGDGTIQVRSRADVKNHIDNVEKEMTIDNSENNDNRWMQGIAVDGDDLYWLSGNSSVNSHVQIGKYSLTTGQKIYDYPFKLSYQDGINFPRDNFKEPEGICIYTNPKTKRKSLLLAMTNGGGGKRFHNLYGFFQLGEYEHFEALRARGSQNYKLTKDDGRALSIPDHIDDLNDLTQAGFYYIDGGTAEKLKNMPMNGSKRIIDAGCFINVYPTTQTLGTVQELTRFSTGRKMVKMVRGMTLDVFTLKWDYGLWTTIKTDAPYQEYLEASQYNNWIAYVTTAGEYYITGNQMELFRDAPEEIKKVGAWLRVSSGNAVGEVRQTLEANISEYKEFFSNVNAETKHREYGWVAKHQK
For B1, the “stoichiometry N” value in “crystal structure” was 3.

For the origin of these results see publication PMC6795507 (Science Advances, 2019).
